Measured values: US20250041326A1, “THERAPEUTIC AGENT FOR REFRACTORY VIRAL INFECTIONS” (TOKYO METROPOLITAN INSTITUTE OF MEDICAL SCIENCE, priority 2021, published 2025)

Experiments:
HBV [1] = assay: rcDNA and cccDNA in HBV-infected primary human hepatocytes treated with IFNλ1 protein; format: cell-based; conditions: primary human hepatocytes persistently infected with HBV, 15 days treatment
Protocol: Primary human hepatocytes persistently infected with HBV were treated with IFNλ1 protein for 15 days, and rcDNA and cccDNA were quantified.
Primary human hepatocytes persistently infected with HBV for 22 days or longer (PhoenixBio Co., Ltd., Japan) were cultured in a medium containing recombinant human IFN-lambda 1 (R&D systems) with medium replacement every 5 days, and the cells were collected after 15 days.
DNA in the cells were extracted by the sodium iodide method.
The cells were mixed with 200 μL of lysis buffer (10 mM EDTA, 500 mM 2-mercaptoethanol, 50 mM Tris-HCl, 75 mM KCl, 5% sarcosyl, 0.1 μg/μL protease K, pH 8.0), followed by heating at 55° C. for 20 minutes. After addition of 300 μL of a NaI solution (40 mM Tris-HCl, 20 mM EDTA, 7.6 M sodium iodide, coprecipitant), the mixture was allowed to stand at room temperature for 15 minutes. After addition of 600 μL of mixed alcohols (40% isopropanol, 60% 1-butanol), the mixture was cooled on ice for 15 minutes. The mixture was centrifuged at 4° C. at 15,000×g for 20 minutes to precipitate DNA. […]
were used, and an aliquot equivalent to 250 ng gDNA was measured according to the protocol of THUNDERBIRD Probe qPCR Mix (TOYOBO). […]
(§1) were used, and the Plasmid-Safe ATP-dependent DNase-treated product (equivalent to 50 ng total DNA) was measured according to the protocol of THUNDERBIRD Probe qPCR Mix (TOYOBO). […]

HBV [2] = assay: cccDNA in HepG2 cells stably expressing HBV; format: cell-based, human; conditions: 5 days, IRF1 plasmid 0.5 μg/well, IFN-lambda 1 100 ng/mL, or supernatant every day
Protocol: HepG2 cells made susceptible to HBV infection (HepG2-hNTCP-30 cells) were transfected with a 1.3-fold longer gene of HBV genotype C to prepare cells stably expressing HBV.
The primary human hepatocyte-derived human IRF1 gene (GenBank Accession No. NM_002198.3) was cloned into a pCI-neo Mammalian Expression Vector (Promega) to construct an IRF1 plasmid.
Using Lipofectamine 3000 (Invitrogen), the IRF1 plasmid (0.5 μg/well) was introduced by reverse transfection into HepG2 cells stably expressing HBV (2×10^5 cells/well, 48-well plate).
As an empty plasmid, a pCI-neo Mammalian Expression Vector was used.
Using the culture supernatant of the HepG2 cells stably expressing HBV (2×10^5 cells/well, 48-well plate) transfected with the IRF1 plasmid or the empty plasmid (0.5 μg/well), untransfected HepG2 cells stably expressing HBV (2×10^5 cells/well, 48-well plate) were treated every day for 5 days. Likewise, HepG2 cells stably expressing HBV were treated for 5 days with a medium containing recombinant human IFN-lambda 1 (100 ng/mL, R&D systems).
DNA in the cells were extracted by the sodium iodide method. […]
as §1

B1: IFNλ1 protein: recombinant human IFN-lambda 1 (R&D systems) (protein, UniProt Q8IU54 20-200, looked up)
Interferon lambda-1: GPVPTSKPTTTGKGCHIGRFKSLSPQELASFKKARDALEESLKLKNWSCSSPVFPGNWDLRLLQVRERPVALEAELALTLKVLEAAAGPALEDVLDQPLHTLHHILSQLQACIQPQPTAGPRPRGRLHHWLHRLQEAPKKESAGCLEASVTFNLFRLLTRDLKYVADGNLCLRTSTHPEST
In the case of B1, the cccDNA levels (HBV [1]) is reported as “reduced in a manner dependent on the amount”, the rcDNA levels (HBV [1]) is reported as “reduced in a manner dependent on the amount” and the cccDNA (HBV [2]) is reported as “not reduced”.
